According to publication PMC6884526 (2019):

Biological target: MBP-TrkB-454-821 (Rattus norvegicus (Rat), UniProt Q63604)
Assay: pull-down (MBP-TrkB on amylose resin, GST-ActI-SIPA1L2 prey, immunoblot)

MBP-TrkB-454-821, sequence (Q63604 454-821): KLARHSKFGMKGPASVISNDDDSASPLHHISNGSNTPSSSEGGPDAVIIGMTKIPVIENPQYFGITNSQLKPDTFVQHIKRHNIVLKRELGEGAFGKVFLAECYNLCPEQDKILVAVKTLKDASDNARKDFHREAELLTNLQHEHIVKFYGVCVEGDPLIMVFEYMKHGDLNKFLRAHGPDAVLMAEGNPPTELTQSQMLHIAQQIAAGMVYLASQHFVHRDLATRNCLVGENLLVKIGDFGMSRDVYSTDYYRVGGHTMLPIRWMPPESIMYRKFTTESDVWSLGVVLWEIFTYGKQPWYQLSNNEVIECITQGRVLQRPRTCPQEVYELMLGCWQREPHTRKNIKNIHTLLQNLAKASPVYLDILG

- binding result: binds
B1: GST-ActI-SIPA1L2-1-624 (protein)
chain: MSDPRPSQAEKHKLGRAASKFKDPSRAMQSDDYFARKFKAINGSMGPATLNTSSLSEGGGGGGGPANGTPAVPKMGVRARVSEWPPKKDCSKDLACKTLWESRSQSSYESATSIIQNGQNDQVDRQQEEQLDLDFVEAKYTIGDIFVHSPQRGLHPIRQRSNSDITISDIDTEDVLDQHAVNPNTGAALHREYGSTSSIDRQGLSGENVFAMLRGYRIESYDPKVTSSFGFPDFFPCDTAISPSLHAAAQISRGEFVRISGLDYMDGGLLMGRDRDKPFKRRLKSESVETSLFRKLRTVKSEHETFKFTSDLEEGRLDRGIRPWSCQRCFAHYDVQSILFNINEAMATRASVGKRKNITTGASAASQTPVPVGPAGGCESPLGSKEDLNAKENPDADEGDGKSNDLVLSCPYFRNETGGEGDRRIALSRANSASFSSGESCSFESSLSSHCTNAGVSVLEVPRENQPIHREKVKRYIIEHVDLGAYYYRKFFYGKEHQNYFGIDENLGPVAVSIRREKVEDPREKEGSQFNYRVAFRTSELTTLRGAILEDAVPSTARHGTARGLPLKEVLEYVIPELSIPCLRQAANSPKVPEQLLKLDEQGLSFQHKIGILYCKAGQSTEEE
